The nature of this series: total protein half-life in vivo (active degradation + dilution); higher = more stable protein.
The mark [1] stands for this setting: E. coli NCM3722 delta-clpP delta-lon delta-hslV, growth: N-lim chemostat, doubling time 6 h.
Setting [2] is: E. coli NCM3722 delta-clpP, growth: N-lim chemostat, doubling time 6 h.
[3] abbreviates: E. coli NCM3722 delta-hslV, growth: N-lim chemostat, doubling time 6 h.
The mark [4] stands for this setting: E. coli NCM3722 delta-lon, growth: N-lim chemostat, doubling time 6 h.
The mark [5] stands for this setting: E. coli NCM3722 delta-smpB, growth: N-lim chemostat, doubling time 6 h.
The mark [6] stands for this setting: wild type E. coli NCM3722, growth: C-lim chemostat, doubling time 3 h.
[7] abbreviates: wild type E. coli NCM3722, growth: C-lim chemostat, doubling time 6 h.
Where [8] appears, read: wild type E. coli NCM3722, growth: C-lim chemostat, doubling time 12 h.
The mark [9] stands for this setting: wild type E. coli NCM3722, growth: N-lim chemostat, doubling time 6 h.
The mark [10] stands for this setting: wild type E. coli NCM3722, growth: N-lim chemostat, doubling time 12 h.
Setting [11] is: wild type E. coli NCM3722, growth: P-lim chemostat, doubling time 6 h.
The mark [12] stands for this setting: wild type E. coli NCM3722, growth: P-lim chemostat, doubling time 12 h.

± gives the standard deviation of the averaged measurements.

Consider “MTQDELKKAVGWAALQYVQPGTIVGVGTGSTAAHFIDALGTMKGQIEGAVSSSDASTEKLKSLGIHVFDLNEVDSLGIYVDGADEINGHMQMIKGGGAALTREKIIASVAEKFICIADASKQVDILGKFPLPVEVIPMARSAVARQLVKLGGRPEYRQGVVTDNGNVILDVHGMEILDPIAMENAINAIPGVVTVGLFANRGADVALIGTPDGVKTIVK [P0A7Z0]”, for which the “total protein half-life in vivo” value runs as follows: under setting [1], 4.63 ± 0.6 h; under setting [2], 3.964 ± 0.033 h; under setting [3], 4.16 ± 0.58 h; under setting [4], 4.46 ± 0.19 h; under setting [5], 4.21 ± 0.072 h; under setting [6], 2.89 ± 0.12 h. Besides, the “total protein half-life in vivo” value was determined as 5.36 ± 0.4 h under setting [7]; 9.4966 ± 0.0081 h under setting [8]; 4.01 ± 0.3 h under setting [9]; 6.79 ± 0.038 h under setting [10]; 5.1 ± 0.3 h under setting [11]; 11.6 ± 0.7 h under setting [12].
For “MKSLRLMLCAMPLMLTGCSTMSSVNWSAANPWNWFGSSTKVSEQGVGELTASTPLQEQAIADALDGDYRLRSGMKTANGNVVRFFEVMKGDNVAMVINGDQGTISRIDVLDSDIPADTGVKIGTPFSDLYSKAFGNCQKADGDDNRAVECKAEGSQHISYQFSGEWRGPEGLMPSDDTLKNWKVSKIIWRR”, the “total protein half-life in vivo” value reads like this: under setting [1], 5.96 ± 0.15 h; under setting [2], 6.484 ± 0.023 h; under setting [3], 7.579 ± 0.065 h; under setting [5], 6.4 ± 0.55 h; under setting [6], 3.24 ± 0.74 h; under setting [7], 6.151 ± 0.0073 h. The “total protein half-life in vivo” value runs as follows: under setting [8], 14.8 ± 0.17 h; under setting [9], 6.63 ± 0.47 h; under setting [11], 6.68 ± 0.71 h.
For “MSRVTAIISALIICIIVSLSWAVNHYRDNAIAYKVQRDKNARELKLANAAITDMQMRQRDVAALDAKYTKELADAKAENDALRDDVAAGRRRLHIKAVCQSVREATTASGVDNAASPRLADTAERDYFTLRERLITMQKQLEGTQKYINEQCR”, the “total protein half-life in vivo” value under setting [8] was determined as 3.49 h and the “total protein half-life in vivo” value under setting [12] stood at 6.44 h.
With “MASVSISCPSCSATDGVVRNGKSTAGHQRYLCSHCRKTWQLQFTYTASQPGTHQKIIDMAMNGVGCRATARIMGVGLNTILRHLKNSGRSR [P0CF07]”, the “total protein half-life in vivo” value was found to be 2.96 h under setting [1] and 2.5 h under setting [12].
Regarding “MPHSDELDAGNVLAVENLNIAFMQDQQKIAAVRNLSFSLQRGETLAIVGESGSGKSVTALALMRLLEQAGGLVQCDKMLLQRRSREVIELSEQNAAQMRHVRGADMAMIFQEPMTSLNPVFTVGEQIAESIRLHQNASREEAMVEAKRMLDQVRIPEAQTILSRYPHQLSGGMRQRVMIAMALSCRPAVLIADEPTTALDVTIQAQILQLIKVLQKEMSMGVIFITHDMGVVAEIADRVLVMYQGEAVETGTVEQIFHAPQHPYTRALLAAVPQLGAMKGLDYPRRFPLISLEHPAKQAPPIEQKTVVDGEPVLRVRNLVTRFPLRSGLLNRVTREVHAVEKVSFDLWPGETLSLVGESGSGKSTTGRALLRLVESQGGEIIFNGQRIDTLSPGKLQALRRDIQFIFQDPYASLDPRQTIGDSIIEPLRVHGLLPGKDAAARVAWLLERVGLLPEHAWRYPHEFSGGQRQRICIARALALNPKVIIADEAVSALDVSIRGQIINLLLDLQRDFGIAYLFISHDMAVVERISHRVAVMYLGQIVEIGPRRAVFENPQHPYTRKLLAAVPVAEPSRQRPQRVLLSDDLPSNIHLRGEEVAAVSLQCVGPGHYVAQPQSEYAFMRR”, the “total protein half-life in vivo” value stood at 5.29 ± 0.17 h under setting [1]; 3.52 ± 0.092 h under setting [2]; 4 ± 0.11 h under setting [3]; 4.37 ± 0.63 h under setting [4]; 3.88 ± 0.28 h under setting [5]; 2.37 ± 0.21 h under setting [6]. Moreover, the “total protein half-life in vivo” value by setting is: under setting [7], 3.9527 ± 0.00027 h; under setting [8], 6.1 ± 0.44 h; under setting [9], 3.6 ± 0.015 h; under setting [10], 7.19 ± 1.5 h; under setting [11], 4.059 ± 0.034 h; under setting [12], 6.87 ± 0.34 h.
Regarding “MNTARLNQGTPLLLNAVSKHYAENIVLNQLDLHIPAGQFVAVVGRSGGGKSTLLRLLAGLETPTAGDVLAGTTPLAEIQEDTRMMFQDARLLPWKSVIDNVGLGLKGQWRDAARRALAAVGLENRAGEWPAALSGGQKQRVALARALIHRPGLLLLDEPLGALDALTRLEMQDLIVSLWQEHGFTVLLVTHDVSEAVAMADRVLLIEEGKIGLDLTVDIPRPRRLGSVRLAELEAEVLQRVMQRGESETRLRKQG [P0AAI1]”, the “total protein half-life in vivo” value reads like this: under setting [1], 5.9 ± 0.12 h; under setting [2], 1.1 h.
As for “MKTSLFKSLYFQVLTAIAIGILLGHFYPEIGEQMKPLGDGFVKLIKMIIAPVIFCTVVTGIAGMESMKAVGRTGAVALLYFEIVSTIALIIGLIIVNVVQPGAGMNVDPATLDAKAVAVYADQAKDQGIVAFIMDVIPASVIGAFASGNILQVLLFAVLFGFALHRLGSKGQLIFNVIESFSQVIFGIINMIMRLAPIGAFGAMAFTIGKYGVGTLVQLGQLIICFYITCILFVVLVLGSIAKATGFSIFKFIRYIREELLIVLGTSSSESALPRMLDKMEKLGCRKSVVGLVIPTGYSFNLDGTSIYLTMAAVFIAQATNSQMDIVHQITLLIVLLLSSKGAAGVTGSGFIVLAATLSAVGHLPVAGLALILGIDRFMSEARALTNLVGNGVATIVVAKWVKELDHKKLDDVLNNRAPDGKTHELSS [P0A830]”, the “total protein half-life in vivo” value under setting [3] was found to be 3.58 h; the “total protein half-life in vivo” value under setting [5] was 4.23 h; the “total protein half-life in vivo” value under setting [7] is 5.59 ± 0.43 h; the “total protein half-life in vivo” value under setting [8] amounted to 10.7 ± 0.59 h; the “total protein half-life in vivo” value under setting [9] was determined as 5.77 h; the “total protein half-life in vivo” value under setting [11] stood at 5.05 h. The “total protein half-life in vivo” value under setting [12] worked out at 8.47 h.
Regarding “MSKHDTDTSDQHAAKRRWLNAHEEGYHKAMGNRQVQMIAIGGAIGTGLFLGAGARLQMAGPALALVYLICGLFSFFILRALGELVLHRPSSGSFVSYAREFLGEKAAYVAGWMYFINWAMTGIVDITAVALYMHYWGAFGGVPQWVFALAALTIVGTMNMIGVKWFAEMEFWFALIKVLAIVTFLVVGTVFLGSGQPLDGNTTGFHLITDNGGFFPHGLLPALVLIQGVVFAFASIEMVGTAAGECKDPQTMVPKAINSVIWRIGLFYVGSVVLLVMLLPWSAYQAGQSPFVTFFSKLGVPYIGSIMNIVVLTAALSSLNSGLYCTGRILRSMAMGGSAPSFMAKMSRQHVPYAGILATLVVYVVGVFLNYLVPSRVFEIVLNFASLGIIASWAFIIVCQMRLRKAIKEGKAADVSFKLPGAPFTSWLTLLFLLSVLVLMAFDYPNGTYTIAALPIIGILLVIGWFGVRKRVAEIHSTAPVVEEDEEKQEIVFKPETAS”, the “total protein half-life in vivo” value under setting [2] was 4.52 h; the “total protein half-life in vivo” value under setting [3] amounted to 4.74 ± 0.064 h; the “total protein half-life in vivo” value under setting [4] was 4.87 h; the “total protein half-life in vivo” value under setting [6] is over 4 h; the “total protein half-life in vivo” value under setting [8] amounted to 11.4 h; the “total protein half-life in vivo” value under setting [9] turned out to be 4.73 h. The “total protein half-life in vivo” value under setting [10] came out at 10.3 h.
As to “MKIISFVLPCLLVLAGCSTPSQPEAPKPPQIGMANPASVYCQQKGGTLIPVQTAQGVSNNCKLPGGETIDEWALWRRDHPAGEK”, the “total protein half-life in vivo” value by setting is: under setting [2], over 8 h; under setting [4], 6.51 h; under setting [5], 5.85 h; under setting [6], 2.68 h; under setting [8], 15.8 ± 0.2 h; under setting [10], 14.4 ± 0.2 h. In addition, the “total protein half-life in vivo” value under setting [11] came to 6.22 h.
